The text below walks through data of patent US20200024330A1.

Assay [1] addresses HIV-1 Env of isolate ZM249 (HIV-1). Briefly: cell-based or functional assay.
In assay [2] the target is HIV-1 Env of isolate Du172 (HIV-1). Briefly: cell-based or functional assay.
The target in assay [3] is HIV-1 Env of isolate DU422 (HIV-1). Briefly: cell-based or functional assay.
For assay [4], the target named is HIV-1 Env of isolate DU156 (HIV-1). The experiment in a line: cell-based or functional assay.
Assay [5] has as its target HIV-1 JR-FL Env E168K (pseudovirus) (HIV-1 JR-FL). Briefly: cell-based or functional assay.
For assay [6], the target named is HIV-1 APV13 Env (clade B pseudovirus) (HIV-1). Briefly: cell-based or functional assay.
Assay [7] has as its target HIV-1 92UG024 Env (clade D pseudovirus) (HIV-1). The experiment in a line: cell-based or functional assay.
For assay [8], the target named is HIV-1 MGRM-D-001 Env (clade D pseudovirus) (HIV-1). Briefly: cell-based or functional assay.
The target of assay [9] is HIV-1 JRCSF Env (clade B pseudovirus) (HIV-1) (UniProt P20871). Briefly: cell-based or functional assay.
Assay [10] addresses HIV-1 NL43 Env (clade B pseudovirus) (HIV-1). Briefly: cell-based or functional assay.
Assay [11] has as its target HIV-1 CMU02 Env (pseudovirus) (HIV-1). The experiment in a line: cell-based or functional assay.
The target in assay [12] is HIV-1 MGRM-C-028 Env (pseudovirus) (HIV-1). The experiment in a line: cell-based or functional assay.
In assay [13] the target is HIV-1 Env of isolate APV6 (clade B) (HIV-1). Briefly: cell-based or functional assay.
Assay [14] concerns the target HIV-1 Env of isolate 92BR020 (clade B) (HIV-1). Briefly: cell-based or functional assay.
In assay [15] the target is JR-FL gp120 ΔV3 (HIV-1 (isolate JR-FL)). The experiment in a line: ELISA on coated gp120; EC50 by nonlinear regression.
Assay [16] addresses Endo H treated JR-FL gp120 (HIV-1 (isolate JR-FL)). The description is as above.
Assay [17] has as its target HIV-1 JR-CSF Env I423A (HIV-1 (isolate JR-CSF)) (UniProt P20871). The experiment in a line: cell-based or functional assay.
In assay [18] the target is HIV-1 Env of isolate MGRM-F1-021 (clade F), on pseudovirus (HIV-1). The experiment in a line: cell-based or functional assay.
Assay [19] deals with HIV-1 envelope glycoprotein (Env) of isolate APV_13, on pseudovirus (HIV-1). The experiment in a line: cell-based or functional assay.
Assay [20] has as its target HIV-1 envelope glycoprotein (Env) of isolate MGRM-Chronic-B-020, on pseudovirus (HIV-1). The experiment in a line: cell-based or functional assay.
The target of assay [21] is HIV-1 envelope glycoprotein (Env) of isolate 92BR020, on pseudovirus (HIV-1). Briefly: cell-based or functional assay.
Assay [22] concerns the target HIV-1 Env of isolate 92UG031 (pseudovirus) (HIV-1). Briefly: cell-based or functional assay.
The target of assay [23] is HIV-1 Env of isolate 94 KE 105 (pseudovirus) (HIV-1). Briefly: cell-based or functional assay.
Assay [24] concerns the target HIV-1 Env of isolate MG RM-A-012 (pseudovirus) (HIV-1). The experiment in a line: cell-based or functional assay.
In assay [25] the target is HIV-1 Env of isolate 92WR021 (pseudovirus) (HIV-1). The experiment in a line: cell-based or functional assay.
The target of assay [26] is HIV-1 Env of isolate 94UG103 (pseudovirus) (HIV-1). Briefly: cell-based or functional assay.
Assay [27] addresses HIV-1 Env of isolate 93WR029 (pseudovirus) (HIV-1). Briefly: cell-based or functional assay.
The target of assay [28] is HIV-1 Env of isolate CMU02 (pseudovirus) (HIV-1). The experiment in a line: cell-based or functional assay.
Assay [29] addresses HIV-1 Env of isolate MGRM-AE-001 (pseudovirus) (HIV-1). Briefly: cell-based or functional assay.
Assay [30] has as its target HIV-1 Env of isolate 92TH021 (pseudovirus) (HIV-1). Briefly: cell-based or functional assay.
Assay [31] has as its target HIV-1 Env of isolate MGRM-AE-002 (pseudovirus) (HIV-1). Briefly: cell-based or functional assay.
Assay [32] concerns the target HIV-1 Env of isolate MGRM-AE-006 (pseudovirus) (HIV-1). The experiment in a line: cell-based or functional assay.

Bounds are passed on as bounds.

Chain of 1443_C16 (PG16) (TCN-116) (antibody) (VH): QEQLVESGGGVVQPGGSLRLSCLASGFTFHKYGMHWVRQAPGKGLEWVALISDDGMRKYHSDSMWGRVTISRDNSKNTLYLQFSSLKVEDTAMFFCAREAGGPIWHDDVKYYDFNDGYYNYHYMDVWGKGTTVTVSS
Chain of 1443_C16 (PG16) (TCN-116) (antibody) (VL): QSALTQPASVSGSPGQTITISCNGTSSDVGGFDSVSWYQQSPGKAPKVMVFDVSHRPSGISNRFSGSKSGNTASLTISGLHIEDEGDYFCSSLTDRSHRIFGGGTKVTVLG

1443_C16 (PG16) (TCN-116) (antibody): the IC50, pseudovirus neutralization (TZM-bl) is below 0.01 mg/L in [1], below 0.01 mg/L in assay [2], 0.59 mg/L in assay [3] and below 0.01 mg/L in assay [4]. For the same substance, the IC50 (ug/ml), neutralization in assay [5] is 0.006 µg/mL.
For 4877_D15 (PGT-122) (antibody), the Neutralization by PGT-122, IC50 was 0.992 mg/L in assay [6]; above 10 mg/L in assay [7]; 0.867 mg/L in assay [8]; 0.0727 mg/L in assay [9]; above 10 mg/L in assay [10]. The Neutralization by PGT-122, IC80 in assay [6] was 4.14 mg/L; in assay [7] it was above 10 mg/L; in [8], 4.48 mg/L; in assay [9], 0.245 mg/L; in assay [10], above 10 mg/L. For the same substance, the Neutralization by PGT-122, IC90 in assay [6] is 8.6 mg/L; in assay [7], above 10 mg/L; in [8], above 10 mg/L; in assay [9], 0.494 mg/L; in [10] it was above 10 mg/L. Further, the Neutralization by PGT-122, IC95 in assay [6] was above 10 mg/L; in assay [7], above 10 mg/L; in assay [8] it was above 10 mg/L; in assay [9] it was 0.926 mg/L; in assay [10], above 10 mg/L.
As for 5141_B17 (PGT-126) (antibody), in assay [11], the IC50 is above 10 mg/L, the IC80 is above 10 mg/L, the IC90 was above 10 mg/L and the IC95 was above 10 mg/L. In assay [12], this substance registered an IC50 of 0.283 mg/L, an IC80 of 2.62 mg/L, an IC90 above 10 mg/L and an IC95 above 10 mg/L.
With 5147_N06 (PGT-130) (antibody), in assay [13], the neutralization IC50 is above 10 mg/L, the neutralization IC80 is above 10 mg/L, the neutralization IC90 is above 10 mg/L and the neutralization IC95 is above 10 mg/L. In assay [14], this substance registered a neutralization IC50 of 1.12 mg/L, a neutralization IC80 above 10 mg/L, a neutralization IC90 above 10 mg/L and a neutralization IC95 above 10 mg/L.
On to PGT-121 (antibody), for which the EC50 in assay [15] and in assay [16] was above 10 mg/L throughout. In [17], this substance showed a Fold IC50 increase relative to wild-type of 3.3 fold.
PGV04 (antibody): in [18], the IC50 (µg/mL), single-round pseudovirus neutralization is 0.031 µg/mL. In addition, the IC50, pseudovirus neutralization in assay [19] is 1.23 mg/L; in assay [20], 1.26 mg/L; in assay [21], 0.25 mg/L.
On to VRC01 (antibody), for which the IC50 (µg/mL), pseudovirus neutralization in assay [22] was 0.469 µg/mL; in assay [23], 0.499 µg/mL; in [24] it was above 50 µg/mL; in [25], 0.066 µg/mL; in assay [26], 0.285 µg/mL; in assay [27], 1.57 µg/mL. For the same substance, the IC50 (µg/mL), pseudovirus neutralization in assay [28] was 0.515 µg/mL; in assay [29], 0.167 µg/mL; in assay [30], 0.616 µg/mL; in [31], 0.217 µg/mL; in assay [32] it was 4.65 µg/mL.
